Measurements: patent US20220251152A1, “COMPOSITIONS AND METHODS FOR SELECTIVE PROTEIN DEGRADATION” (Novartis AG, priority 2019, published 2022)

Tested on: CAR19 fused to HilD tag and/or FurON
Experiment: Flow cytometry of surface CAR expression on JNL cells, 10 μM lenalidomide and/or bazedoxifene 24 hours
Type: cell-based, human
Conditions: for effect of lenalidomide on surface CAR expression of the construct: 10 μM lenalidomide for 24 hours; for % reduction in CAR expression / Effect of lenalidomide / CAR Expression: surface CAR on transduced JNL cells; for % reduction in CAR expression / Effect of lenalidomide: 10 μM lenalidomide, 24 hours; for CAR Expression: flow cytometry, FurON constructs only in presence of bazedoxifene
Description: Next, the surface expression of CAR19 on stably transduced JNL cells was examined by flow cytometry. […] On Day 2, cells were harvested, stained using biotinylated-protein L (Genscript, M00097) followed by PE conjugated streptavidin (Jackson Lab, 016-110-084), and subjected to flow cytometry analysis using Fortessa instrument.

Molecule	effect of lenalidomide on surface CAR expression of the construct	% reduction in CAR expression [%]	Effect of lenalidomide	CAR Expression
construct 769: signal peptide, CAR19, a 16GS linker, and the HilD tag (protein) EIVMTQSPATLSLSPGERATLSCRASQDISKYLNWYQQKPGQAPRLLIYHTSRLHSGIPARFSGSGSGTDYTLTISSLQPEDFAVYFCQQGNTLPYTFGQGTKLEIKGGGGSGGGGSGGGGSQVQLQESGPGLVKPSETLSLTCTVSGVSLPDYGVSWIRQPPGKGLEWIGVIWGSETTYYQSSLKSRVTISKDNSKNQVSLKLSSVTAADTAVYYCAKHYYYGGSYAMDYWGQGTLVTVSSTTTPAPRPPTPAPTIASQPLSLRPEACRPAAGGAVHTRGLDFACDIYIWAPLAGTCGVLLLSLVITLYCKRGRKKLLYIFKQPFMRPVQTTQEEDGCSCRFPEEEEGGCELRVKFSRSADAPAYQQGQNQLYNELNLGRREEYDVLDKRRGRDPEMGGKPRRKNPQEGLYNELQKDKMAEAYSEIGMKGERRRGKGHDGLYQGLSTATKDTYDALHMQALPPRGGGGSGGGGTGGGGSGMHKRSHTGERPFQCNQCGASFTQKGNLLRHIKLHTGEKPFKCHLCNTASAEARHIKAEMG	significantly reduced surface CAR expression			
construct 771: signal peptide, CAR19, the HilD tag, and a V5 (protein) MALPVTALLLPLALLLHAARPEIVMTQSPATLSLSPGERATLSCRASQDISKYLNWYQQKPGQAPRLLIYHTSRLHSGIPARFSGSGSGTDYTLTISSLQPEDFAVYFCQQGNTLPYTFGQGTKLEIKGGGGSGGGGSGGGGSQVQLQESGPGLVKPSETLSLTCTVSGVSLPDYGVSWIRQPPGKGLEWIGVIWGSETTYYQSSLKSRVTISKDNSKNQVSLKLSSVTAADTAVYYCAKHYYYGGSYAMDYWGQGTLVTVSSTTTPAPRPPTPAPTIASQPLSLRPEACRPAAGGAVHTRGLDFACDIYIWAPLAGTCGVLLLSLVITLYCKRGRKKLLYIFKQPFMRPVQTTQEEDGCSCRFPEEEEGGCELRVKFSRSADAPAYQQGQNQLYNELNLGRREEYDVLDKRRGRDPEMGGKPRRKNPQEGLYNELQKDKMAEAYSEIGMKGERRRGKGHDGLYQGLSTATKDTYDALHMQALPPRMHKRSHTGERPFQCNQCGASFTQKGNLLRHIKLHTGEKPFKCHLCNTASAEARHIKAEMGGKPIPNPLLGLDST	significantly reduced surface CAR expression			
construct 6761: signal peptide, CAR19, a 16KGS linker, the HilD tag, and a V5 (protein) MALPVTALLLPLALLLHAARPEIVMTQSPATLSLSPGERATLSCRASQDISKYLNWYQQKPGQAPRLLIYHTSRLHSGIPARFSGSGSGTDYTLTISSLQPEDFAVYFCQQGNTLPYTFGQGTKLEIKGGGGSGGGGSGGGGSQVQLQESGPGLVKPSETLSLTCTVSGVSLPDYGVSWIRQPPGKGLEWIGVIWGSETTYYQSSLKSRVTISKDNSKNQVSLKLSSVTAADTAVYYCAKHYYYGGSYAMDYWGQGTLVTVSSTTTPAPRPPTPAPTIASQPLSLRPEACRPAAGGAVHTRGLDFACDIYIWAPLAGTCGVLLLSLVITLYCKRGRKKLLYIFKQPFMRPVQTTQEEDGCSCRFPEEEEGGCELRVKFSRSADAPAYQQGQNQLYNELNLGRREEYDVLDKRRGRDPEMGGKPRRKNPQEGLYNELQKDKMAEAYSEIGMKGERRRGKGHDGLYQGLSTATKDTYDALHMQALPPRKGGGSKGGGTKGGGSKMHKRSHTGERPFQCNQCGASFTQKGNLLRHIKLHTGEKPFKCHLCNTASAEARHIKAEMGGKPIPNPLLGLDST	significantly reduced surface CAR expression			
construct 768: signal peptide, CAR19, a 16GS linker, the HilD tag, and a V5 (protein) MALPVTALLLPLALLLHAARPEIVMTQSPATLSLSPGERATLSCRASQDISKYLNWYQQKPGQAPRLLIYHTSRLHSGIPARFSGSGSGTDYTLTISSLQPEDFAVYFCQQGNTLPYTFGQGTKLEIKGGGGSGGGGSGGGGSQVQLQESGPGLVKPSETLSLTCTVSGVSLPDYGVSWIRQPPGKGLEWIGVIWGSETTYYQSSLKSRVTISKDNSKNQVSLKLSSVTAADTAVYYCAKHYYYGGSYAMDYWGQGTLVTVSSTTTPAPRPPTPAPTIASQPLSLRPEACRPAAGGAVHTRGLDFACDIYIWAPLAGTCGVLLLSLVITLYCKRGRKKLLYIFKQPFMRPVQTTQEEDGCSCRFPEEEEGGCELRVKFSRSADAPAYQQGQNQLYNELNLGRREEYDVLDKRRGRDPEMGGKPRRKNPQEGLYNELQKDKMAEAYSEIGMKGERRRGKGHDGLYQGLSTATKDTYDALHMQALPPRGGGGSGGGGTGGGGSGMHKRSHTGERPFQCNQCGASFTQKGNLLRHIKLHTGEKPFKCHLCNTASAEARHIKAEMGGKPIPNPLLGLDST	significantly reduced surface CAR expression			
construct 773: modified signal peptide, the HilD tag, a furin cleavage site, and CAR19 (protein) MALPVTALLLPLALLLHAARPRSSLAHKRSHTGERPFQCNQCGASFTQKGNLLRHIKLHTGEKPFKCHLCNTASAEARHIKAEMGGTGAEDPRPSRKRRSLGDVGEIVMTQSPATLSLSPGERATLSCRASQDISKYLNWYQQKPGQAPRLLIYHTSRLHSGIPARFSGSGSGTDYTLTISSLQPEDFAVYFCQQGNTLPYTFGQGTKLEIKGGGGSGGGGSGGGGSQVQLQESGPGLVKPSETLSLTCTVSGVSLPDYGVSWIRQPPGKGLEWIGVIWGSETTYYQSSLKSRVTISKDNSKNQVSLKLSSVTAADTAVYYCAKHYYYGGSYAMDYWGQGTLVTVSSTTTPAPRPPTPAPTIASQPLSLRPEACRPAAGGAVHTRGLDFACDIYIWAPLAGTCGVLLLSLVITLYCKRGRKKLLYIFKQPFMRPVQTTQEEDGCSCRFPEEEEGGCELRVKFSRSADAPAYQQGQNQLYNELNLGRREEYDVLDKRRGRDPEMGGKPRRKNPQEGLYNELQKDKMAEAYSEIGMKGERRRGKGHDGLYQGLSTATKDTYDALHMQALPPR	did not impact surface CAR expression			
construct 774: signal peptide, the HilD tag, a furin cleavage site, and CAR19 (protein) MALPVTALLLPLALLLHAARPHKRSHTGERPFQCNQCGASFTQKGNLLRHIKLHTGEKPFKCHLCNTASAEARHIKAEMGGTGAEDPRPSRKRRSLGDVGEIVMTQSPATLSLSPGERATLSCRASQDISKYLNWYQQKPGQAPRLLIYHTSRLHSGIPARFSGSGSGTDYTLTISSLQPEDFAVYFCQQGNTLPYTFGQGTKLEIKGGGGSGGGGSGGGGSQVQLQESGPGLVKPSETLSLTCTVSGVSLPDYGVSWIRQPPGKGLEWIGVIWGSETTYYQSSLKSRVTISKDNSKNQVSLKLSSVTAADTAVYYCAKHYYYGGSYAMDYWGQGTLVTVSSTTTPAPRPPTPAPTIASQPLSLRPEACRPAAGGAVHTRGLDFACDIYIWAPLAGTCGVLLLSLVITLYCKRGRKKLLYIFKQPFMRPVQTTQEEDGCSCRFPEEEEGGCELRVKFSRSADAPAYQQGQNQLYNELNLGRREEYDVLDKRRGRDPEMGGKPRRKNPQEGLYNELQKDKMAEAYSEIGMKGERRRGKGHDGLYQGLSTATKDTYDALHMQALPPR	did not impact surface CAR expression			
771 (protein) MALPVTALLLPLALLLHAARPEIVMTQSPATLSLSPGERATLSCRASQDISKYLNWYQQKPGQAPRLLIYHTSRLHSGIPARFSGSGSGTDYTLTISSLQPEDFAVYFCQQGNTLPYTFGQGTKLEIKGGGGSGGGGSGGGGSQVQLQESGPGLVKPSETLSLTCTVSGVSLPDYGVSWIRQPPGKGLEWIGVIWGSETTYYQSSLKSRVTISKDNSKNQVSLKLSSVTAADTAVYYCAKHYYYGGSYAMDYWGQGTLVTVSSTTTPAPRPPTPAPTIASQPLSLRPEACRPAAGGAVHTRGLDFACDIYIWAPLAGTCGVLLLSLVITLYCKRGRKKLLYIFKQPFMRPVQTTQEEDGCSCRFPEEEEGGCELRVKFSRSADAPAYQQGQNQLYNELNLGRREEYDVLDKRRGRDPEMGGKPRRKNPQEGLYNELQKDKMAEAYSEIGMKGERRRGKGHDGLYQGLSTATKDTYDALHMQALPPRMHKRSHTGERPFQCNQCGASFTQKGNLLRHIKLHTGEKPFKCHLCNTASAEARHIKAEMGGKPIPNPLLGLDST		87	Yes	Yes
773 (protein) MALPVTALLLPLALLLHAARPRSSLAHKRSHTGERPFQCNQCGASFTQKGNLLRHIKLHTGEKPFKCHLCNTASAEARHIKAEMGGTGAEDPRPSRKRRSLGDVGEIVMTQSPATLSLSPGERATLSCRASQDISKYLNWYQQKPGQAPRLLIYHTSRLHSGIPARFSGSGSGTDYTLTISSLQPEDFAVYFCQQGNTLPYTFGQGTKLEIKGGGGSGGGGSGGGGSQVQLQESGPGLVKPSETLSLTCTVSGVSLPDYGVSWIRQPPGKGLEWIGVIWGSETTYYQSSLKSRVTISKDNSKNQVSLKLSSVTAADTAVYYCAKHYYYGGSYAMDYWGQGTLVTVSSTTTPAPRPPTPAPTIASQPLSLRPEACRPAAGGAVHTRGLDFACDIYIWAPLAGTCGVLLLSLVITLYCKRGRKKLLYIFKQPFMRPVQTTQEEDGCSCRFPEEEEGGCELRVKFSRSADAPAYQQGQNQLYNELNLGRREEYDVLDKRRGRDPEMGGKPRRKNPQEGLYNELQKDKMAEAYSEIGMKGERRRGKGHDGLYQGLSTATKDTYDALHMQALPPR		4	No	Yes
774 (protein) MALPVTALLLPLALLLHAARPHKRSHTGERPFQCNQCGASFTQKGNLLRHIKLHTGEKPFKCHLCNTASAEARHIKAEMGGTGAEDPRPSRKRRSLGDVGEIVMTQSPATLSLSPGERATLSCRASQDISKYLNWYQQKPGQAPRLLIYHTSRLHSGIPARFSGSGSGTDYTLTISSLQPEDFAVYFCQQGNTLPYTFGQGTKLEIKGGGGSGGGGSGGGGSQVQLQESGPGLVKPSETLSLTCTVSGVSLPDYGVSWIRQPPGKGLEWIGVIWGSETTYYQSSLKSRVTISKDNSKNQVSLKLSSVTAADTAVYYCAKHYYYGGSYAMDYWGQGTLVTVSSTTTPAPRPPTPAPTIASQPLSLRPEACRPAAGGAVHTRGLDFACDIYIWAPLAGTCGVLLLSLVITLYCKRGRKKLLYIFKQPFMRPVQTTQEEDGCSCRFPEEEEGGCELRVKFSRSADAPAYQQGQNQLYNELNLGRREEYDVLDKRRGRDPEMGGKPRRKNPQEGLYNELQKDKMAEAYSEIGMKGERRRGKGHDGLYQGLSTATKDTYDALHMQALPPR		5	No	Yes
